# Laboratory results as given in PMC9300613.
# Key:
# [1] = molecular target: bovine brain αβ-tubulin (taxol-stabilised microtubules, dolastatin-induced rings or DARPin-capped free dimer for biochemical assays) (bovine) (UniProt Q6B856)
# [2] = molecular target: bovine brain αβ-tubulin (taxol-stabilised microtubules, dolastatin-induced rings or DARPin-capped free dimer for biochemical assays) (bovine) (UniProt Q6B856); experiment: co-sedimentation; 1 μM kinesin with 0-10 μM taxol-stabilised microtubules, BRB80 + 100 mM KCl, 2 mM AMP-PNP, 20 μM taxol, 20 min at 25 °C; pellet and supernatant by SDS-PAGE; Kd from a quadratic fit
substance,measurement,setting,value
"HsKHC-MDN_(L2-CaKip3) (HsKHC-MDN with loop-2 IASK, I41-K44, replaced by CaKip3 loop-2 F116-H144) (from UniProt P33176;A0A1D8PKA4) (domain or fragment)",microtubule-gliding speed of HsKHC-MDN (L2-CaKip3) relative to HsKHC-MDN (taxol-stabilised microtubules),[1],2 fold
same,"microtubule-stimulated ATP turnover at steady state, relative to HsKHC-MDN",[1],2 fold
same,fold greater affinity than HsKHC-MDN,[2],7 fold
